From paper PMC10063446 (Nature Immunology, 2023)

B1: P2S-2E9 (full IgG1) (antibody, V domains shown)
VH: QITLKESGPTLVKPTQTLTLTCTFSGFSLSTSGVGVGWIRQPPGKALEWLALIYWDDDKRYSPSLKSRLTITKDTSKNQVVLTMTNMDPVDTATYYCARHRIGYIFDYWGQGTLVTVSS
VL: QSALTQPASVSGSPGQSITISCTGTSSDVGDFNYVSWYQQHPGKAPKLMIYDVTKRPSGVSNRFSGSKSGNTASLTISGLQAEDEADYCCSSYTTSSISFGGGTKLTVL
B2: P2-1B1 (full IgG1) (antibody, V domains shown)
VH: QVQLVQSGAEVKRPGSSVKVSCKASGGTFSSYAISWVRQAPGQGPEWMGGIIPIFGTPHNAQKFQGRVTITADESTSTAYMELSSLRSEDTAMYYCSRTKGDILTGYTDYYFDSWGQGTLVTVSS
VL: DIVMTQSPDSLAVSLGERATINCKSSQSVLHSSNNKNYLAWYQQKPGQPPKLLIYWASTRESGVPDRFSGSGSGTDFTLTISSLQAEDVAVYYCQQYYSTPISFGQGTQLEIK
B3: P5-1C8 (full IgG1) (antibody, V domains shown)
VH: EVQLVESGGGLIQPGGSLRLSCAASEIIVSRNYMNWVRQAPGKGLEWVSVIYSGGSTFYADSVKGRFTISRDNSENTLYLQMNSLRAEDTAVYYCARGYGDYYFDYWGRGTLVTVSS
VL: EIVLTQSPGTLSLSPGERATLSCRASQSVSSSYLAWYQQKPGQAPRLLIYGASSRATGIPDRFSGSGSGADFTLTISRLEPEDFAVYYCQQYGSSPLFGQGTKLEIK
B4: P5S-3B11 (full IgG1) (antibody, V domains shown)
VH: EVQLVESGGGLVQPGGSLRISCAASGLTFTGYWMNWVRQAPGKGLEWVANIKEDGSEKYYVDSVKGRFTISRDNAKNSLYLQMNSLRVEDTAVYYCARLRWLRGNFDHWGQGTLVTVSS
VL: NFMLTQPHSVSESPGKTVTISCTGSNGYIANNYVQWYQQRPGSVPTVVIYEDNQRPSGVPDRFSGSIDSSSNSASLIISGLKTEDEADYYCQSYDTPNVVFGGGTKLTVL
notes: IgG1; group 2
B5: P5-1H1 (full IgG1) (antibody, V domains shown)
VH: EVQLVESGGGLIQPGGSLRLSCAASGITVSSNYMTWVRQPPGKGLEWVSVIYSGGSTFYADPVKGRFTISRDNSRNTLYLQMNSLRAEDTAVYYCARDLQVYGMDVWGQGTTVTVSS
VL: DIQLTQSPSFLSASVGDRVTITCRASQGISNFLAWYQQKPGKAPKLLIYAASTLQGGVPSTFSGSGSGTEFTLTISSLQPEDFATYYCQHLNDYPLFGGGTRVEIK

Legend:
[1] = molecular target: SARS-CoV-2 RBD immobilised on the CM5 chip (SARS-CoV-2 wild-type (assumed)); assay: SPR; conditions: both partners purified
[2] = molecular target: T1, recombinant wild-type SARS-CoV-2 S trimer (ELISA antigen) (SARS-CoV-2 wild-type, UniProt P0DTC2); assay: ELISA; conditions: one partner purified
T1 construct: also called S^WT trimer; recombinant S protein; source: bought: Sino Biological

[3] = molecular target: T2, recombinant RBD protein of wild-type SARS-CoV-2 (ELISA antigen) (SARS-CoV-2 wild-type, UniProt P0DTC2); assay: ELISA; conditions: one partner purified
T2 construct: No catalogue number printed

[4] = molecular target: T3, wild-type SARS-CoV-2 S protein expressed on the surface of HEK 293T cells (SARS-CoV-2 wild-type (MN908947.3), UniProt P0DTC2); assay: flow cytometry on cells; conditions: one partner purified
T3 construct: also called S^WT protein

| Binder | binding result [1] | binding result [2] | binding result [3] | binding result [4] |
| --- | --- | --- | --- | --- |
| B1 | binds | binds | binds | binds |
| B2 |  | binds |  |  |
| B3 |  | binds |  |  |
| B4 | binds |  |  |  |
| B5 |  | binds |  | binds |
